B1: CTLA4/CD28Ig hybrid fusion protein HS3 (Fc fusion, not shown: a dimerising Fc or GST)
chain: MHVAQPAVVLASSRGIASFVCEYASPGKATEVRVTVLRQADSQVTEVCAATYMMGNELTFLDDSICTGTSSGNQVNLTIQGLRAMDTGLYICKVEVMYPPPYLDNEKSNGTIIHVKGKHLCPS
notes: mature numbering, not counted on the entries
B2: CTLA4/CD28Ig hybrid fusion protein HS2 (Fc fusion, not shown: a dimerising Fc or GST)
chain: MHVAQPAVVLASSRGIASFVCKYSYNLFSREFRASLHKGLDSAVEVCVVYGNYSQQLQVYSKTGFNCDGKLGNESVTFYLQNLYVNQTDIYFCKIELMYPPPYYLGIGNGTQIYVIDPEPCPDSD
notes: as for B1
B3: B7 antigen (B7-1, CD80) expressed on cells (ligand, human, UniProt P33681 35-288, looked up)
chain: VIHVTKEVKEVATLSCGHNVSVEELAQTRIYWQKEKKMVLTMMSGDMNIWPEYKNRTIFDITNNLSIVILALRPSDEGTYECVVLKYEKDAFKREHLAEVTLSVKADFPTPSISDFEIPTSNIRRIICSTSGGFPEPHLSWLENGEELNAINTTVSQDPETELYAVSSKLDFNMTTNHSFMCLIKYGHLRVNQTFNWNTTKQEHFPDNLLPSWAITLISVNGIFVICCLTYCFAPRCRERRRNERLRRESVRPV
notes: whole, on cells; Stably transfected CHO cells; in the MLR and IgM assays the B7 antigen of the stimulating B cells; also called B7^+ CHO cells; B7-1 positive CHO cells
B4: CTLA4/CD28Ig hybrid fusion protein HS6 (Fc fusion, not shown: a dimerising Fc or GST)
chain: MHVAQPAVVLASSRGIASFVCEYSYNLFSREVRVTVLRQADSQVTEVCAATYMMGNELTFLDDSICTGTSSGNQVNLTIQGLRAMDTGLYICKVELMYPPPYYLGIGNGTQIYVIDPEPCPDSD
notes: as for B1
B5: CTLA4/CD28Ig hybrid fusion protein HS1 (Fc fusion, not shown: a dimerising Fc or GST)
chain: NKILVKQSPMLVAYDNAYNLSCKYASPGKATEVRVTVLRQADSQVTEVCAATYMMGNELTFLDDSICTGTSSGNQVNLTIQGLRAMDTGLYICKVEVMYPPPYLDNEKSNGTIIHVKGKHLCPS
notes: as for B1
B6: CD7 expressed on transfected COS cells (receptor, UniProt P09564 26-240, looked up)
chain: AQEVQQSPHCTTVPVGASVNITCSTSGGLRGIYLRQLGPQPQDIIYYEDGVVPTTDRRFRGRIDFSGSQDNLTITMHRLQLSDTGTYTCQAITEVNVYGSGTLVLVTEEQSQGWHRCSDAPPRASALPAPPTGSALPDPQTASALPDPPAASALPAALAVISFLLGLGLGVACVLARTQIKKLCSWRDKNSAACVVYEDMSHSRCNTLSSPNQYQ
notes: whole, on cells; Control transfectant; also called CD7-transfected COS cells
B7: CTLA4/CD28Ig hybrid fusion protein HS4-A (Fc fusion, not shown: a dimerising Fc or GST)
chain: NKILVKQSPMLVAYDNAYNLSCKYSYNLFSREFRASLHKGLDSAVEVCVVYGNYSQQLQVYSKTGFNCDGKLGNESVTFYLQNLYVNQTDIYFCKIELMYPPPYYLGIGNGTQIHVKGKHLCPS
notes: as for B1
B8: CTLA4/CD28Ig hybrid fusion protein HS4 (Fc fusion, not shown: a dimerising Fc or GST)
chain: NKILVKQSPMLVAYDNAYNLSCKYSYNLFSREFRASLHKGLDSAVEVCVVYGNYSQQLQVYSKTGFNCDGKLGNESVTFYLQNLYVNQTDIYFCKIELMYPPPYYLGIGNGTQIYVIDPEPCPDSD
notes: as for B1

A value given as a limit tells only on which side of the number the result lay.

Test [1] addresses B3. In words: B7-1+ CHO cell enzyme immunoassay; binding activity relative to CTLA4Ig, from the concentrations giving the same A450.
In test [2] the target is T1, CD5Ig (human, UniProt P06127 25-371; P01857 99-330 = IgG part).
T1 construct: range 1-347;domain: hinge, CH2 and CH3 regions; Control fusion protein; also called control CD5Ig fusion protein
T1 sequence (P06127 other isoform, or with tags, fused parts or gaps limits assumed): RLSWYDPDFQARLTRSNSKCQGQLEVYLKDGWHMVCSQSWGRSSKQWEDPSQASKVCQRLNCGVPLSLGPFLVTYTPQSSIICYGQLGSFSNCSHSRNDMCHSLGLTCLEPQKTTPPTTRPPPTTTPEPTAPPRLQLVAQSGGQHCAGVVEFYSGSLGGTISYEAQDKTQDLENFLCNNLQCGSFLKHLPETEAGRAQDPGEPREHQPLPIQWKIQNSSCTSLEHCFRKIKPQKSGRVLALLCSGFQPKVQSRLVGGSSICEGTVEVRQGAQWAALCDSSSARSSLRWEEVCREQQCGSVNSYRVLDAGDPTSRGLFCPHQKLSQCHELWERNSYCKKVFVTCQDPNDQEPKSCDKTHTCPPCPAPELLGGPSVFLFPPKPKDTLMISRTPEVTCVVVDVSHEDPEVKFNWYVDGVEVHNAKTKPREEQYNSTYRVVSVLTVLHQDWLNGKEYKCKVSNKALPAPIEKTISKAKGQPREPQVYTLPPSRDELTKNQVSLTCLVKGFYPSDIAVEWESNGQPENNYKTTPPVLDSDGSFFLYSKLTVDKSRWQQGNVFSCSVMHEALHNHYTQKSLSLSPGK
The experiment in a line: indirect immunofluorescence, FACS, FITC goat anti-human Ig second step.
Protocol: Prior to staining, COS or CHO cells were removed from their culture vessels by incubation in PBS containing 10 mM EDTA. Cells were first incubated with mAbs or Ig fusion proteins at 10 micro grams/ml in DMEM containing 10% FBS for 1–2 hr at 4 degrees C. Cells were then washed, and incubated for an additional 0.5–2 hrs at 4 degrees C. with FITC-conjugated goat anti-mouse immunoglobulin or with FITC-conjugated goat anti-human IgCγ serum (both from Tago, Burlingame, Calif.). When binding of both mAbs and Ig fusion proteins were measured in the same experiment, FITC-conjugated anti-mouse and anti-human second step reagents were mixed together before use. Fluorescence on a total of 10,000 cells was then analyzed by FACS^R.
Binding was detected by FACS^R following addition of FITC-conjugated goat anti-human Ig second step reagents. A total of 10,000 stained cells were analyzed by FACS^R.

Test [3] has as its target T1, CD5Ig. In words: indirect immunofluorescence, FACS, transfected COS cells, FITC anti-mouse and anti-human Ig second step.
Protocol: Immunostaining and FACS^R Analysis. Prior to staining, COS or CHO cells were removed from their culture vessels by incubation in PBS containing 10 mM EDTA. Cells were first incubated with mAbs or Ig fusion proteins at 10 micro grams/ml in DMEM containing 10% FBS for 1–2 hr at 4 degrees C. Cells were then washed, and incubated for an additional 0.5–2 hrs at 4 degrees C. with FITC-conjugated goat anti-mouse immunoglobulin or with FITC-conjugated goat anti-human IgCγ serum (both from Tago, Burlingame, Calif.). When binding of both mAbs and Ig fusion proteins were measured in the same experiment, FITC-conjugated anti-mouse and anti-human second step reagents were mixed together before use. Fluorescence on a total of 10,000 cells was then analyzed by FACS^R.
Cells were then washed and binding was detected by a mixture of FITC-conjugated goat anti-mouse Ig and FITC-conjugated goat anti-human Ig second step reagents. Transfected cells were tested for expression of the appropriate cell surface markers by indirect immunostaining and fluorescence was measured using FACS^R analysis as described above.
The target of test [4] is B3. In words: enzyme immunoassay on fixed B7-1+ CHO cells.

As to B1, in test [1], the “% B7 binding activity” value was < 0.1%.
On the same count and under the same terms, next, B2: 27%.
In the case of B3, the binding result with CD5Ig [2] was “no binding (tested: 10 µg/ml (from the text))”.
With B4, the “% B7 binding activity” value in test [1] amounted to 20%.
Turning to B5, in test [1], the “% B7 binding activity” value is < 0.1%.
On to B6, for which, in the test with CD5Ig [3], the binding result is “no binding (tested: 10 µg/ml (from the text))”.
Consider B7, for which, in test [4], the “% of wild type binding” value was ~2%. Moreover, the “% B7 binding activity” value in test [1] is 2%.
Turning to B8, in test [4], the “fold less binding than wild type CTLA4Ig” value was ~5 fold and the “increase in binding relative to CD28Ig” value is ~2.5 orders of magnitude. The “% B7 binding activity” value in test [1] came to 16%.

The values above are taken from patent US7105166 (Bristol-Myers Squibb, dated 2006).
